# Publication PMC3979729
# Molecular target: TNFR (human (endogenous in primary CD4+ T cells)) (UniProt P19438)
# Sequence of UniProt P19438 (P19438 30-455): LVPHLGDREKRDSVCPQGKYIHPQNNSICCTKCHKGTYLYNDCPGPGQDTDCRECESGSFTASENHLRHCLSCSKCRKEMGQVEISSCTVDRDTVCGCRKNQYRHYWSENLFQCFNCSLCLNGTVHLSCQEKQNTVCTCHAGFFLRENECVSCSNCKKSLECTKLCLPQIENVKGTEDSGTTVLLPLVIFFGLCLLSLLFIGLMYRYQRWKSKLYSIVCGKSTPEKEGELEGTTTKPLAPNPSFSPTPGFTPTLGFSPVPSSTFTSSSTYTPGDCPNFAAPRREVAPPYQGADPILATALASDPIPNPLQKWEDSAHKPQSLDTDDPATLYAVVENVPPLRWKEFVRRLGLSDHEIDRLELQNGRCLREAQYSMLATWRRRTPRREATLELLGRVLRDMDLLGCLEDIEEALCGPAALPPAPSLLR
substance,measurement,value
tumor necrosis factor alpha (TNF-α) (from UniProt P01375 1-233) (ligand),other (% necroptosis),0.3
